# Tests used:
# Assay in all cases: EMSA
# [1] = system: ResR/McdR (ResR1-225) (Mycobacterium tuberculosis Erdman)
# [2] = system: ResR/McdR17-225 (Mycobacterium tuberculosis Erdman)
# [3] = system: ResR/McdRMS (Mycobacterium smegmatis)
Substance,Kd [1],Kd [2],Kd [3]
PwhiB2_FL,330 nM,–,–
PrplN_FL,780 nM,1170 nM,1400 nM

# From publication PMC10336103, “ResR/McdR-regulated protein translation machinery contributes to drug resilience in Mycobacterium tuberculosis” (Communications Biology, 2023)
